Legend:
Conditions in all cases: 20 nM; 72 h
[1] = system: MCF10A; experiment: one-nucleolus phenotype percent effect (relative to siNT 0% and siNOL11 100%); higher = more cells with one nucleolus (ribosome biogenesis inhibition)
Procedure: (§1)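 After 72 h, cells were fixed and stained with Hoechst and anti-fibrillarin, and nucleoli per nucleus were counted with CellProfiler. Values are plate-adjusted percent effect for the one-nucleolus and 5+ nucleoli phenotypes, normalised to siNT (0%) and to the positive controls siNOL11 or siKIF11 (100%), as the mean of biological triplicates. Percent viability is the nuclei count relative to siNT.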

[2] = system: MCF10A; experiment: 5+ nucleoli phenotype percent effect (relative to siNT 0% and siKIF11 100%); higher = more cells with five or more nucleoli
Procedure: as §1

[3] = system: MCF10A; experiment: percent viability (nuclei count relative to siNT); higher = more viable cells
Procedure: as §1

Sequence	one-nucleolus phenotype percent effect [1] [%]	5+ nucleoli phenotype percent effect [2] [%]	percent viability [3] [%]
AGCCUUCCAGGAGAAAUGGAGA [hsa-miR-5581-5p]	20.5	-16.7	14.3
GAUGGUUGACCAGAGAGCACAC [hsa-miR-758-5p]	-21.1	60.1	56.6
AAAAACCACAAUUACUUUUGCACCA [hsa-miR-548aa]	51.2	-30.9	16.1
AGGAAACAGGGACCCA [hsa-miR-4261]	37.1	-16.8	32.1
UUGGGGUGGUCGGCCCUGGAG [hsa-miR-6737-5p]	48.7	-19.8	7.13
UCAUCCUCGUCUCCCUCCCAG [hsa-miR-5196-3p]	-13.1	-6.21	44.3
UAUCUGCUGGGCUUUCUGGUGUU [hsa-miR-4686]	43.6	-43.3	34.5
AGGAGGCAGCGCUCUCAGGAC [hsa-miR-650]	23.2	-3.4	33.8
UGCCCCAACAAGGAAGGACAAG [hsa-miR-5699-5p]	-18.9	43.5	43.1
UCGUGUCCCUCUUGUCCACAG [hsa-miR-6774-3p]	-27	58.8	70
UAGUACUGUGCAUAUCAUCUAU [hsa-miR-1278]	-1.62	-12.8	73.4
UAGGAUGGGGGUGAGAGGUG [hsa-miR-2392]	-3.85	17.7	50.4
CCCCAGGGCGACGCGGCGGG [hsa-miR-1915-3p]	-13.1	42.5	87.8
GGAUAUCAUCAUAUACUGUAAG [hsa-miR-144-5p]	-0.41	2.47	54.5
UCCUCCUCUACCUCAUCCCAGU [hsa-miR-5193]	9.86	-13.6	35.1
UCGCGGUUUGUGCCAGAUGACG [hsa-miR-579-5p]	-22.2	41.8	64.6
AUCACAUUGCCAGUGAUUACCC [hsa-miR-23c]	2.08	-6.12	93.5
AACCACUUUCUUUGCUCAUCCA [hsa-miR-1255b-2-3p]	7.09	-17.2	32.1
AUAAGACGAGCAAAAAGCUUGU [hsa-miR-208a]	-6.61	14.9	100
CUGUUGCCACUAACCUCAACCU [hsa-miR-744-3p]	27.3	-44.1	56
GGGCUGGGGCGCGGGGAGGU [hsa-miR-5787]	-30.8	60.6	150
UGGGAGAGCAGGGUAUUGUGGA [hsa-miR-6731-5p]	43	-22.2	6.77
AACUCUGACCCCUUAGGUUGAU [hsa-miR-4714-5p]	-5.26	-16.1	41.1

Sequence	one-nucleolus phenotype percent effect [1] [%]	5+ nucleoli phenotype percent effect [2] [%]	percent viability [3] [%]
UGUCAGUGACUCCUGCCCCUUGGU [hsa-miR-4697-3p]	-7.45	3.98	98.6
GGGGCGCGGCCGGAUCG [hsa-miR-3178]	-32.2	51.5	93.3
AUGGGGUGAGAUGGGGAGGAGCAGC [hsa-miR-6812-5p]	12.2	-19.9	23.7
UUUAGAGACGGGGUCUUGCUCU [hsa-miR-1303]	-10.2	17.6	71.3
AAAAGUAAUUGCGGUUUUUGCC [hsa-miR-548c-5p]	-19.1	16.9	166
CUGGGAUCUCCGGGGUCUUGGUU [hsa-miR-769-3p]	18	-14.5	40.7
CAUCUUACCGGACAGUGCUGGA [hsa-miR-200a-5p]	5.98	-26	56
UGUGCAAAUCUAUGCAAAACUGA [hsa-miR-19a-3p]	-14.6	34.4	141
UUCCCUUUGUCAUCCUAUGCCU [hsa-miR-204-5p]	-10.4	46	100
AGGAGAUCCUGGGUU [hsa-miR-3676-5p]	18.3	-13.3	30.1
GAAGGCGCUUCCCUUUGGAGU [hsa-miR-524-3p]	35.1	-9.32	70.4
CCACGUGCUUCUCUUUCCGCAG [hsa-miR-6767-3p]	13.2	-26	69
AUUGUCCUUGCUGUUUGGAGAU [hsa-miR-2355-3p]	-8.98	-3.53	55.4
UCGUGCAUAUAUCUACCACAU [hsa-miR-4536-3p]	2.78	0.0637	49.3
AAGGCCCGGGCUUUCCUCCCAG [hsa-miR-4747-3p]	31.7	-14.1	29.2
UGCUUCCUUUCUCAGCUG [hsa-miR-7162-5p]	0.399	-13.8	64.9
UGCCUCUUUUCCACGGCCUCAG [hsa-miR-6781-3p]	-1.18	2.23	38.9
UGUUUGUUGUAAGGAUCGUUGU [hsa-miR-8068]	7.78	-15.7	34.1
UCACGCGGAGAGAUGGCUUUG [hsa-miR-3186-3p]	11.3	-13.4	20.7
UGAUUGUAGCCUUUUGGAGUAGA [hsa-miR-508-3p]	23.4	-32	54.1
UGUGGUAGAUAUAUGCACGAU [hsa-miR-4536-5p]	26.2	-25.4	25.9
CUAGUGCUCUCCGUUACAAGUA [hsa-miR-4473]	-11.7	18	37.8
